Experimental data: publication PMC9482650, “Quantitative fragmentomics allow affinity mapping of interactomes” (Nature Communications, 2022)

Legend:
Test in all cases: holdup assay
Set-up in all cases: key: below the threshold = too weak to quantify, mostly under pKd 3.1 to 4
ARHGEF11, O15085 = biological target: T1, ARHGEF11, O15085
T1 sequence (O15085 42-136, limits assumed, looked up): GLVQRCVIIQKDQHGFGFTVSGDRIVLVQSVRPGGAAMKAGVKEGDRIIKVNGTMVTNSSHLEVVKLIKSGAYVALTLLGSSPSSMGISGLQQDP

CARD11, Q9BXL7 = biological target: T2, CARD11, Q9BXL7
T2 sequence (Q9BXL7 662-765, limits assumed, looked up): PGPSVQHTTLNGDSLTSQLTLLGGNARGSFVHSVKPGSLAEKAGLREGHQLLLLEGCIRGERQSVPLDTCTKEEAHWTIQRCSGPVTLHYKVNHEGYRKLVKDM

DFNB31_3, Q9P202 = biological target: T3, DFNB31_3, Q9P202
T3 sequence (Q9P202 811-907, limits assumed, looked up): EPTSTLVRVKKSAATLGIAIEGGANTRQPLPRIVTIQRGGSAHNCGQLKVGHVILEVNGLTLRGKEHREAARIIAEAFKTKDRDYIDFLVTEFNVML

DLG1_2, Q12959 = biological target: DLG1_2, Q12959
Chain of DLG1_2, Q12959 (Q12959 314-412): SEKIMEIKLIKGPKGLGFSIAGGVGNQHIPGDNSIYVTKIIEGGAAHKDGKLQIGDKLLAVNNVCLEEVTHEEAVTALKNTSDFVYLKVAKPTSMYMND

DLG1_3, Q12959 = biological target: DLG1_3, Q12959
Chain of DLG1_3, Q12959 (Q12959 457-571): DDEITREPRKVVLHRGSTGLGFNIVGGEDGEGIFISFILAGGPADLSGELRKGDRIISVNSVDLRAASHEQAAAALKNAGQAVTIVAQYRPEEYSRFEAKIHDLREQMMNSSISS

DLG2_3, Q15700 = biological target: DLG2_3, Q15700
FRMPD2_2, Q68DX3 = biological target: FRMPD2_2, Q68DX3
Chain of FRMPD2_2, Q68DX3 (Q68DX3 944-1038): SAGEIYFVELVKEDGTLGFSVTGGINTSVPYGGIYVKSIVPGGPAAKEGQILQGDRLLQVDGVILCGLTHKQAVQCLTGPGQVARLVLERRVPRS

GORASP1, Q9BQQ3 = biological target: GORASP1, Q9BQQ3
Chain of GORASP1, Q9BQQ3 (Q9BQQ3 1-208): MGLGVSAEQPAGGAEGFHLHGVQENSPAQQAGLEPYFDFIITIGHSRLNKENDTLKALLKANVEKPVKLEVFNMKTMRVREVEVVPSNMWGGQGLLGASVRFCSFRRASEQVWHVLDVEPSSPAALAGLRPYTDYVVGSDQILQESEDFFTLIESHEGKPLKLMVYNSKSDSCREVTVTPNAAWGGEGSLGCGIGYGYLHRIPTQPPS

GRIP1_3, Q9Y3R0 = biological target: T4, GRIP1_3, Q9Y3R0
T4 sequence (Q9Y3R0 247-346, limits assumed, looked up): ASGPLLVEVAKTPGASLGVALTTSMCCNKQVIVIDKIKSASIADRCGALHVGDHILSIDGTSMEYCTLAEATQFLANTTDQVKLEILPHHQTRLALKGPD

GRIP1_5, Q9Y3R0 = biological target: T5, GRIP1_5, Q9Y3R0
T5 sequence (Q9Y3R0 568-668, limits assumed, looked up): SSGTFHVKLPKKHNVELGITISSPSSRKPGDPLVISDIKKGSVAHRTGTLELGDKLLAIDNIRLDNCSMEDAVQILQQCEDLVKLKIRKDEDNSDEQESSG

GRIP2_3, Q9C0E4 = biological target: GRIP2_3, Q9C0E4
Chain of GRIP2_3, Q9C0E4 (Q9C0E4 238-339): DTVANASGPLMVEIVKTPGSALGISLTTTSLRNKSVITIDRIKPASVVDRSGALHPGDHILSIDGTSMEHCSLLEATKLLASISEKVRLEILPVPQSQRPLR

GRIP2_5, Q9C0E4 = biological target: GRIP2_5, Q9C0E4
Chain of GRIP2_5, Q9C0E4 (Q9C0E4 544-642): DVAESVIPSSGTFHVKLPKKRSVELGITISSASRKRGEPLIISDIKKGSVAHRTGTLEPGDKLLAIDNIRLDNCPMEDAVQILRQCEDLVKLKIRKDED

HTRA2, O43464 = biological target: HTRA2, O43464
Chain of HTRA2, O43464 (O43464 355-458): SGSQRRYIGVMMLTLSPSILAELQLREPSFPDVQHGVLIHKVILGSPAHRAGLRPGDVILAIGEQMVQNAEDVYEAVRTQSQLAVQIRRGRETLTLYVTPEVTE

Inadl_1, Q8NI35 = biological target: Inadl_1, Q8NI35
Chain of Inadl_1, Q8NI35 (Q8NI35 113-229): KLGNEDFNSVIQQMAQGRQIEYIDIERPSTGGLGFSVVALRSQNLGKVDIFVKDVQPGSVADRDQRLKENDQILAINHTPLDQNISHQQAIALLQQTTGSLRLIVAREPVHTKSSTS

Inadl_4, Q8NI35 = biological target: Inadl_4, Q8NI35
Chain of Inadl_4, Q8NI35 (Q8NI35 547-651): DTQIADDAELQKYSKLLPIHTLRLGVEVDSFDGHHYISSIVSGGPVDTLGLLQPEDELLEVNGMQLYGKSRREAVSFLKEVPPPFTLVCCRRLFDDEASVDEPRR

LNX2_3, Q8N448 = biological target: T6, LNX2_3, Q8N448
T6 sequence (Q8N448 463-564, limits assumed, looked up): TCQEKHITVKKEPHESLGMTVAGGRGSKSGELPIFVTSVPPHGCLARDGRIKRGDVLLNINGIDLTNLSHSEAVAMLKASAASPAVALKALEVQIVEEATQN

MAGI2_2, Q86UL8 = biological target: MAGI2_2, Q86UL8
Chain of MAGI2_2, Q86UL8 (Q86UL8 410-522): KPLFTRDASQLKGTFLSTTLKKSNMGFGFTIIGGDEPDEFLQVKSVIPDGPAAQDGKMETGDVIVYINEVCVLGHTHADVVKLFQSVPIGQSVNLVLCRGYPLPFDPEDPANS

MAGI2_5, Q86UL8 = biological target: MAGI2_5, Q86UL8
Chain of MAGI2_5, Q86UL8 (Q86UL8 915-1017): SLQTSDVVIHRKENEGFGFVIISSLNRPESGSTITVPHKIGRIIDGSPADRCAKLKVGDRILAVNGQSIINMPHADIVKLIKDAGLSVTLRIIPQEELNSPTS

MAGI2_6, Q86UL8 = biological target: MAGI2_6, Q86UL8
Chain of MAGI2_6, Q86UL8 (Q86UL8 1141-1229): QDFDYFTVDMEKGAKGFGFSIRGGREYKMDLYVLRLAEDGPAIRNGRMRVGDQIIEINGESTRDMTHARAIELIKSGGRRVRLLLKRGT

MAGI3_2, Q5TCQ9 = biological target: MAGI3_2, Q5TCQ9
Chain of MAGI3_2, Q5TCQ9 (Q5TCQ9 398-503): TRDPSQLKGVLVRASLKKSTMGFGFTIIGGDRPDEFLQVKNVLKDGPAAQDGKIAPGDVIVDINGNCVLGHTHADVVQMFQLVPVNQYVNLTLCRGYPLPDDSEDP

MPDZ_10, O75970 = biological target: T7, MPDZ_10, O75970
T7 sequence (O75970 1624-1722, limits assumed, looked up): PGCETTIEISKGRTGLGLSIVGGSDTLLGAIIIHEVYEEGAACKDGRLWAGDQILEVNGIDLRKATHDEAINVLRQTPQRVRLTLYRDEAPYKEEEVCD

NHERF3_1, Q5T2W1 = biological target: T8, NHERF3_1, Q5T2W1
T8 sequence (Q5T2W1 4-100, limits assumed, looked up): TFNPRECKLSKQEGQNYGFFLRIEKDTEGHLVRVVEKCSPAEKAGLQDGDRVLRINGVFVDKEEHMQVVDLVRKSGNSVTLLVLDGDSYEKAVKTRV

NHERF4_2, Q86UT5 = biological target: NHERF4_2, Q86UT5
Chain of NHERF4_2, Q86UT5 (Q86UT5 220-308): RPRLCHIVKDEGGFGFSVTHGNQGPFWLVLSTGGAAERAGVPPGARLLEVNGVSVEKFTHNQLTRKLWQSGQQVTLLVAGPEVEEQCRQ

PTPN3, P26045 = biological target: PTPN3, P26045
Chain of PTPN3, P26045 (P26045 505-587): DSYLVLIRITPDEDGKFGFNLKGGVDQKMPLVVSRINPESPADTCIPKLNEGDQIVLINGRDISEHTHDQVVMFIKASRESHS

RADIL, Q96JH8 = biological target: T9, RADIL, Q96JH8
T9 sequence (Q96JH8 971-1071, limits assumed, looked up): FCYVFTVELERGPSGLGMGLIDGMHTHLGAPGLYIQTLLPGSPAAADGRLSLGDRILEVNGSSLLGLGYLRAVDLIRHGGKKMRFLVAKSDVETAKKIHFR

SCRIB_3, Q14160 = biological target: SCRIB_3, Q14160
Chain of SCRIB_3, Q14160 (Q14160 999-1103): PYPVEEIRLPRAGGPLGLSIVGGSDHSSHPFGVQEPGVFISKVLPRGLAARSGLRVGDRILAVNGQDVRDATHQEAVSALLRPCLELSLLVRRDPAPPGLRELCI

SNTA1, Q13424 = biological target: T10, SNTA1, Q13424
T10 sequence (Q13424 82-180, limits assumed, looked up): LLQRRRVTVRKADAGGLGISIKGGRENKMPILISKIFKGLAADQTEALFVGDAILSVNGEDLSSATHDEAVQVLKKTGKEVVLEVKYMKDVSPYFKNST

[1] = plain residues with an end cap or a label only (N-terminal biotin on a linker: (peg)3)
[2] = plain residues with an end cap or a label only (N-terminal biotin on a linker: ado-ado)

## YDEPTTTTSVPL [SARS-Cov2-3a, P0DTC3]
ARHGEF11, O15085; [1]
  pKd: below the threshold
CARD11, Q9BXL7; [1]
  pKd: below the threshold
DFNB31_3, Q9P202; [1]
  pKd: below the threshold
DLG1_2, Q12959; [1]
  pKd: below the threshold
DLG1_3, Q12959; [1]
  pKd: below the threshold
DLG2_3, Q15700; [1]
  pKd: below the threshold
FRMPD2_2, Q68DX3; [1]
  pKd: below the threshold
GORASP1, Q9BQQ3; [1]
  pKd: below the threshold
GRIP1_3, Q9Y3R0; [1]
  pKd: below the threshold
GRIP1_5, Q9Y3R0; [1]
  pKd: below the threshold
GRIP2_3, Q9C0E4; [1]
  pKd: below the threshold
GRIP2_5, Q9C0E4; [1]
  pKd: below the threshold
HTRA2, O43464; [1]
  pKd: below the threshold
Inadl_1, Q8NI35; [1]
  pKd: below the threshold
Inadl_4, Q8NI35; [1]
  pKd: below the threshold
LNX2_3, Q8N448; [1]
  pKd: below the threshold
MAGI2_2, Q86UL8; [1]
  pKd: below the threshold
MAGI2_5, Q86UL8; [1]
  pKd: below the threshold
MAGI2_6, Q86UL8; [1]
  pKd: below the threshold
MAGI3_2, Q5TCQ9; [1]
  pKd: below the threshold
MPDZ_10, O75970; [1]
  pKd: below the threshold
NHERF3_1, Q5T2W1; [1]
  pKd: 3.92
NHERF4_2, Q86UT5; [1]
  pKd: below the threshold
PTPN3, P26045; [1]
  pKd: below the threshold
RADIL, Q96JH8; [1]
  pKd: below the threshold
SCRIB_3, Q14160; [1]
  pKd: below the threshold
SNTA1, Q13424; [1]
  pKd: below the threshold

## RPGFASESKV [ADRB1, P08588]
ARHGEF11, O15085; [2]
  pKd: 4.05
CARD11, Q9BXL7; [2]
  pKd: below the threshold
DFNB31_3, Q9P202; [2]
  pKd: below the threshold
DLG1_2, Q12959; [2]
  pKd: 4.49
DLG1_3, Q12959; [2]
  pKd: below the threshold
DLG2_3, Q15700; [2]
  pKd: 3.75
FRMPD2_2, Q68DX3; [2]
  pKd: 3.5
GORASP1, Q9BQQ3; [2]
  pKd: below the threshold
GRIP1_3, Q9Y3R0; [2]
  pKd: below the threshold
GRIP1_5, Q9Y3R0; [2]
  pKd: below the threshold
GRIP2_3, Q9C0E4; [2]
  pKd: below the threshold
GRIP2_5, Q9C0E4; [2]
  pKd: below the threshold
HTRA2, O43464; [2]
  pKd: below the threshold
Inadl_1, Q8NI35; [2]
  pKd: below the threshold
Inadl_4, Q8NI35; [2]
  pKd: below the threshold
LNX2_3, Q8N448; [2]
  pKd: below the threshold
MAGI2_2, Q86UL8; [2]
  pKd: 4.6
MAGI2_5, Q86UL8; [2]
  pKd: below the threshold
MAGI2_6, Q86UL8; [2]
  pKd: below the threshold
MAGI3_2, Q5TCQ9; [2]
  pKd: 5.13
MPDZ_10, O75970; [2]
  pKd: below the threshold
NHERF3_1, Q5T2W1; [2]
  pKd: 4.36
NHERF4_2, Q86UT5; [2]
  pKd: below the threshold
PTPN3, P26045; [2]
  pKd: 4.32
RADIL, Q96JH8; [2]
  pKd: below the threshold
SCRIB_3, Q14160; [2]
  pKd: 3.49
SNTA1, Q13424; [2]
  pKd: 4.28

## GQETPLNTFC [MAP7D2, Q96T17]
ARHGEF11, O15085; [2]
  pKd: below the threshold
CARD11, Q9BXL7; [2]
  pKd: below the threshold
DFNB31_3, Q9P202; [2]
  pKd: below the threshold
DLG1_2, Q12959; [2]
  pKd: below the threshold
DLG1_3, Q12959; [2]
  pKd: below the threshold
DLG2_3, Q15700; [2]
  pKd: below the threshold
FRMPD2_2, Q68DX3; [2]
  pKd: below the threshold
GORASP1, Q9BQQ3; [2]
  pKd: 3.61
GRIP1_3, Q9Y3R0; [2]
  pKd: below the threshold
GRIP1_5, Q9Y3R0; [2]
  pKd: below the threshold
GRIP2_3, Q9C0E4; [2]
  pKd: below the threshold
GRIP2_5, Q9C0E4; [2]
  pKd: below the threshold
HTRA2, O43464; [2]
  pKd: below the threshold
Inadl_1, Q8NI35; [2]
  pKd: below the threshold
Inadl_4, Q8NI35; [2]
  pKd: below the threshold
LNX2_3, Q8N448; [2]
  pKd: below the threshold
MAGI2_2, Q86UL8; [2]
  pKd: below the threshold
MAGI2_5, Q86UL8; [2]
  pKd: below the threshold
MAGI2_6, Q86UL8; [2]
  pKd: below the threshold
MAGI3_2, Q5TCQ9; [2]
  pKd: below the threshold
MPDZ_10, O75970; [2]
  pKd: below the threshold
NHERF3_1, Q5T2W1; [2]
  pKd: 4.26
NHERF4_2, Q86UT5; [2]
  pKd: below the threshold
PTPN3, P26045; [2]
  pKd: 4.38
RADIL, Q96JH8; [2]
  pKd: below the threshold
SCRIB_3, Q14160; [2]
  pKd: below the threshold
SNTA1, Q13424; [2]
  pKd: below the threshold
